According to patent US11230581B2, “Peptides and combination of peptides for use in immunotherapy against ovarian cancer and other cancers” (Immatics Biotechnologies GmbH, priority 2015, dated 2022):

Each substance was assayed against HLA-A*02:01 (Homo sapiens, UniProt P04439, D140Y/D185E/D98H/E176V/E277Q/G131W/G231S/I119V/I121R/I166T/I218V/L300P/L318F/N151K/N90K/P208A/P217A/Q86G/Q94H/R138H/R169H/T345S) (assay: MHC binding assay (UV-ligand exchange, β2m ELISA, peptide exchange yield)). Conditions: binding of HLA-class I restricted peptides to HLA-A*02:01, UV-ligand exchange.
In short: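 Yield of stabilized complexes quantified via the β2m light chain in an ELISA (streptavidin capture, 100-fold diluted monomers, HRP anti-β2m 2 ug/ml at 37 °C, TMB, A450). The complexes come from UV-triggered replacement of a photocleavable ligand by the candidate peptide.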

Row | Substance | Peptide exchange (MHC class I binding score, peptide exchange yield)
1 | 515 (LLQELVLFL; listed as Homo sapiens) [compound 515] | “+++” (≥50 = +++)
2 | 516 (AVGPASILKEV; listed as Homo sapiens) [compound 516] | “++” (≥20% = ++)
3 | 517 (LLMPIPEGLTL; listed as Homo sapiens) [compound 517] | “+++” (≥50 = +++)
4 | 518 (KLNAEVACV; listed as Homo sapiens) [compound 518] | “+++” (≥50 = +++)
5 | 519 (GLLHLTLLL; listed as Homo sapiens) [compound 519] | “+++” (≥50 = +++)
6 | 520 (LAVHPSGVAL; listed as Homo sapiens) [compound 520] | “+” (≥10% = +)
7 | 521 (MLLTKLPTI; listed as Homo sapiens) [compound 521] | “+++” (≥50 = +++)
8 | 522 (TLWYRSPEV; listed as Homo sapiens) [compound 522] | “++” (≥20% = ++)
9 | 523 (YQIPRTFTL; listed as Homo sapiens) [compound 523] | “++” (≥20% = ++)
10 | 524 (ALIENLTHQI; listed as Homo sapiens) [compound 524] | “++” (≥20% = ++)
11 | 525 (VLLEAGEGLVTI; listed as Homo sapiens) [compound 525] | “+++” (≥50 = +++)
12 | 526 (RLAEVGQYEQV; listed as Homo sapiens) [compound 526] | “++” (≥20% = ++)
13 | 527 (FLLEPGNLEV; listed as Homo sapiens) [compound 527] | “++++” (≥75% = ++++)
14 | 528 (SVAEGRALMSV; listed as Homo sapiens) [compound 528] | “+++” (≥50 = +++)
15 | 529 (LLADELITV; listed as Homo sapiens) [compound 529] | “+++” (≥50 = +++)
16 | 530 (VMYADIGGMDI; listed as Homo sapiens) [compound 530] | “+++” (≥50 = +++)
17 | 531 (YTLPIASSIRL; listed as Homo sapiens) [compound 531] | “+++” (≥50 = +++)
18 | 537 (TLAPGEVLRSV; listed as Homo sapiens) [compound 537] | “+++” (≥50 = +++)
19 | 538 (LLLAHIIAL; listed as Homo sapiens) [compound 538] | “++” (≥20% = ++)
20 | 539 (ALFDAQAQV; listed as Homo sapiens) [compound 539] | “+++” (≥50 = +++)
21 | 541 (SMLEPVPEL; listed as Homo sapiens) [compound 541] | “+++” (≥50 = +++)

Row | Substance | Peptide exchange (MHC class I binding score, peptide exchange yield)
22 | 542 (RVWDISTVSSV; listed as Homo sapiens) [compound 542] | “+++” (≥50 = +++)
23 | 543 (GLLPTPITQQASL; listed as Homo sapiens) [compound 543] | “+++” (≥50 = +++)
24 | 544 (LLWDVPAPSL; listed as Homo sapiens) [compound 544] | “+++” (≥50 = +++)
25 | 545 (LLADLLHNV; listed as Homo sapiens) [compound 545] | “+++” (≥50 = +++)
26 | 546 (VMIAGKVAVV; listed as Homo sapiens) [compound 546] | “+++” (≥50 = +++)
27 | 547 (TLDITPHTV; listed as Homo sapiens) [compound 547] | “+++” (≥50 = +++)
28 | 548 (ALWENPESGEL; listed as Homo sapiens) [compound 548] | “++” (≥20% = ++)
29 | 549 (AMLENASDIKL; listed as Homo sapiens) [compound 549] | “+++” (≥50 = +++)
30 | 550 (FLYDEIEAEVNL; listed as Homo sapiens) [compound 550] | “+++” (≥50 = +++)
31 | 551 (KLYESLLPFA; listed as Homo sapiens) [compound 551] | “+++” (≥50 = +++)
32 | 552 (GLLDLPFRVGV; listed as Homo sapiens) [compound 552] | “++++” (≥75% = ++++)
33 | 553 (SLLNQDLHWSL; listed as Homo sapiens) [compound 553] | “++++” (≥75% = ++++)
34 | 554 (LLMPSSEDLLL; listed as Homo sapiens) [compound 554] | “+++” (≥50 = +++)
35 | 555 (YVLEGLKSV; listed as Homo sapiens) [compound 555] | “+++” (≥50 = +++)
36 | 556 (FLTDLEDLTL; listed as Homo sapiens) [compound 556] | “+++” (≥50 = +++)
37 | 557 (KLYDDMIRL; listed as Homo sapiens) [compound 557] | “+++” (≥50 = +++)
38 | 558 (GLLENIPRV; listed as Homo sapiens) [compound 558] | “+++” (≥50 = +++)
39 | 559 (VTVPPGPSL; listed as Homo sapiens) [compound 559] | “++” (≥20% = ++)
40 | 560 (ALWDIETGQQTTT; listed as Homo sapiens) [compound 560] | “+++” (≥50 = +++)
41 | 561 (YLQLTQSEL; listed as Homo sapiens) [compound 561] | “+++” (≥50 = +++)

More lines, now with the values ahead:

Row | Peptide exchange (MHC class I binding score, peptide exchange yield) | Substance
42 | “+++” (≥50 = +++) | 562 (YLEELPEKLKL; listed as Homo sapiens) [compound 562]
43 | “+++” (≥50 = +++) | 563 (WLLPYNGVTV; listed as Homo sapiens) [compound 563]
44 | “+++” (≥50 = +++) | 564 (TVTNAVVTV; listed as Homo sapiens) [compound 564]
45 | “++” (≥20% = ++) | 565 (ALQETPTSV; listed as Homo sapiens) [compound 565]
46 | “++” (≥20% = ++) | 566 (VIADGGIQNV; listed as Homo sapiens) [compound 566]
47 | “+++” (≥50 = +++) | 567 (SLLPLDDIVRV; listed as Homo sapiens) [compound 567]
48 | “++++” (≥75% = ++++) | 568 (TLYDIAHTPGV; listed as Homo sapiens) [compound 568]
49 | “+++” (≥50 = +++) | 569 (KLVDRTWTL; listed as Homo sapiens) [compound 569]
50 | “++” (≥20% = ++) | 570 (ALANQIPTV; listed as Homo sapiens) [compound 570]
51 | “+++” (≥50 = +++) | 571 (LLLTTIPQI; listed as Homo sapiens) [compound 571]
52 | “+++” (≥50 = +++) | 572 (ALADLIEKELSV; listed as Homo sapiens) [compound 572]
53 | “+++” (≥50 = +++) | 573 (ILVANAIVGV; listed as Homo sapiens) [compound 573]
54 | “++” (≥20% = ++) | 574 (YLLQEPPRTV; listed as Homo sapiens) [compound 574]
55 | “+++” (≥50 = +++) | 575 (YLISQVEGHQV; listed as Homo sapiens) [compound 575]
56 | “++++” (≥75% = ++++) | 576 (ILLNNSGQIKL; listed as Homo sapiens) [compound 576]
57 | “+++” (≥50 = +++) | 577 (VMFEDGVLMRL; listed as Homo sapiens) [compound 577]
58 | “+++” (≥50 = +++) | 578 (FLDPGGPMMKL; listed as Homo sapiens) [compound 578]
59 | “++” (≥20% = ++) | 579 (NLMEMVAQL; listed as Homo sapiens) [compound 579]
60 | “++” (≥20% = ++) | 580 (LLMENAERV; listed as Homo sapiens) [compound 580]
61 | “+++” (≥50 = +++) | 582 (TLCDVILMV; listed as Homo sapiens) [compound 582]
62 | “+++” (≥50 = +++) | 583 (ILANDGVLLAA; listed as Homo sapiens) [compound 583]
63 | “+++” (≥50 = +++) | 584 (ALAEVAAMENV; listed as Homo sapiens) [compound 584]
64 | “++++” (≥75% = ++++) | 585 (ALWDLAADKQTL; listed as Homo sapiens) [compound 585]
65 | “+++” (≥50 = +++) | 586 (KLKPGDLVGV; listed as Homo sapiens) [compound 586]
66 | “+++” (≥50 = +++) | 587 (VMNDRLYAI; listed as Homo sapiens) [compound 587]
